# Data taken from patent US11202837B2, “Biological materials and uses thereof” (Antikor Biopharma Limited, priority 2014, dated 2021).
# B1: scFv (TCT): anti-HER2 scFv: Tev cleavage site, C6.5, T7 tag; SEQ ID NO: 2 (protein)
# scFv: SGSGGSGQVQLVQSGAEVKKPGESLKISCKGSGYSFTSYWIAWVRQMPGKGLEYMGLIYPGDSDTKYSPSFQGQVTISVDKSVSTAYLQWSSLKPSDSAVYFCARHDVGYCSSSNCAAWPEYFQHWGQGTLVTVSSGGGGSGGGGSGGGGSQSVLTQPPSVSAAPGQKVTISCSGSSSNIGNNYVSWYQQLPGTAPKLLIYGHTNRPAGVPDRFSGSKSGTSASLAISGFRSEDEADYYCAAWDDSLSGWVFGGGTKLTVLMASMTGGQQMG
# modifications: Amino Acid sequence of cleaved TCT
# Assays:
# HER2 = HER2 (Homo sapiens, UniProt P04626); assay: Biacore SPR binding to immobilised HER2; settings: immobilised HER2
# In short: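 HER2 amine-coupled on CM5 or CM3 chips, Biacore T200. Free antibody (typically 5-0.6 μg/ml) and conjugates (20-2.5 μg/ml) injected 160 s at 30 μl/min, 900 s dissociation (3600 s at highest concentration); regeneration with 8M MgCl2. Kinetics compared with unmodified scFv.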
# [1] = Concentration reached and storage stability of purified conjugates in buffer; format: physicochemical; settings: Storage buffer 20 mM Sodium Acetate pH5, 150 mM NaCl
# [2] = Blood clearance in mice by direct ADC/scFv detection ELISA; format: in vivo, mouse; settings: BALB/c mice
# Protocol: An anti-Cemadotin MAb was raised (Example 33) and used to follow the ADC in mouse blood, to determine the pharmacokinetic properties. Normal BALB/c mice, 6-8 weeks old were maintained in filtered cages until used. A single batch of material (scFv-TCT, scFv (TCT)-Cemadotin, DAR=5 or 8) were prepared as above (Example 31) and 0.1 mg was injected into groups of 20 mice that were sacrificed at 4 time points (5 mice analysed per time point). Around 0.5 ml of whole blood was removed by cardiac puncture into EDTA-tubes and the serum collected by centrifugation. The serum was diluted appropriately into PBS and analysed by ELISA on HER2 coated micro-titre plates (Example 11D), detecting either by anti-T7 Tag (total antibody) or anti-cemadotin (total ADC). Non-injected reference samples were used to create a calibration curve for a direct read-out of ADC/ScFv blood concentration.
# [3] = Blood clearance of 125-I radiolabelled scFv/conjugates in mice; format: in vivo, mouse; settings: total protein level by 125-I labelling, 10 μg i.v., BALB/c mice
# Protocol: An scFv, optimised for lysine conjugation was prepared as described in Example 27 or 28 and conjugated (as described in Example 31) to an NHS-derived Cemadotin drug (compound 2). The average DAR was 5 for scFv-TCT-Cem-1 and 4 for scFv-TCT-Cem-2 as determined by SDS-PAGE and IEF gels. This was radiolabelled with Iodine-125 using sodium-125-Iodide (MP Biologicals) and Iodogen™ tubes (Thermo) according to the manufacturer's instructions.
# Ten micrograms of radiolabelled scFv or conjugate were injected intravenously into the tail vein of a group of 4 BALB/c female mice (Harlan UK) per time point. At each time point, blood was collected by cardiac puncture under terminal anaesthesia from 4 mice and the spleens were removed by dissection. The radioactivity from the blood and spleen tissues was measured using a gamma counter and compared to the injected dose, correcting for tissue weight. The percentage-injected dose per gram of tissue was plotted over time and pharmacokinetic parameters determined by fitting to a bi-exponential clearance model. […] This is described by the exponential decay, double, four-parameter equation y=ae^−bx+ce^−dx, where the distribution phase clearance rate (t1/2 alpha) can be determined by In 2/b, and the elimination clearance rate (t1/2 beta) can be determined by In 2/d.
# [4] = Plasma pharmacokinetics in BALB/c mice (ELISA, total antibody and total ADC); format: in vivo, mouse; settings: for Elimination half-life (hrs) Total Antibody: plasma ELISA
# Protocol: Mice. Female BALB/c mice (BALB/cAnNCrl, Charles River) were eight weeks old with body weights ranging from 15.9 to 21.9 grams at the beginning of the study. The animals were fed ad libitum water (reverse osmosis, 1 ppm Cl) and NIH 31 Modified and Irradiated Lab Diet® consisting of 18.0% crude protein, 5.0% crude fat, and 5.0% crude fiber. The mice were housed on irradiated Enrich-o'cobs™ Laboratory Animal Bedding in static microisolators on a 12-hour light cycle at 20-22° C. (68-72° F.) and at 40-60% humidity. Charles River Discovery Services North Carolina (CR Discovery Services, who carried out this contracted R&D) specifically complies with the recommendations of the Guide for Care and Use of Laboratory Animals with respect to restraint, husbandry, surgical procedures, feed and fluid regulation, and veterinary care. The Animal Care and Use program at CR Discovery Services is accredited by the Association for Assessment and Accreditation of Laboratory Animal Care International, which assures compliance with accepted standards for the care and use of laboratory animals.
# Therapeutic (test) Agents. All test agents were supplied as ready-to-dose dosing solutions. All dosing solutions were stored at 4° C. until dosed. All treatments were administered in a dosing volume scaled to the body weights of the individual animals to obtain the dosing concentration described in the treatment tables.
# Treatment (mice). On Day 1 of the study, mice were divided into groups each consisting of eighteen mice (per test agent being evaluated), and dosing was initiated according to the treatment plan summarized in the treatment tables. All doses were administered intravenously (i.v.) by tail vein injection as described in the tables below.
# Endpoint. The study endpoint occurred after the last sampling point, typically on Day 2 or 4, twenty-four or seventy-two hours post dose.
# Sampling (mice). Blood (full blood volume) was collected from three animals per treatment group per timepoint. Samples were collected from all animals via terminal cardiac puncture under isoflurane anesthesia. Once collected, blood samples were collected into collection tubes containing lithium heparin or K2EDTA as anticoagulants and were processed for plasma at each timepoint. Each plasma sample was stored at −80° C. until used for analysis.
# Quantification of test agents in plasma. An ELISA was carried out as described in Example 31 The detecting antibodies were (a) Anti-T7 tag to detect the scFv (total antibody), (b) Anti-Human Fab-specific to detect trastuzumab (total antibody), (c) Anti-MMAF (Concortis), Anti-MMAE (Concortis), anti-DM1
# (Concortis) and anti-cemadotin (in-house mouse monoclonal antibody, Example 33 that also recognised P5C5 and AuristatinF), total ADC. The reference test agents were used to construct a calibration curve for which the plasma samples were compared to, in order to quantify the amount present. The concentration was plotted against time (average of three animals with standard error) and fitted to a 2-phase decay curve using GraphPad Prism to derive kinetic parameters.
# [5] = 0.1 mg injected, serum, anti-T7 tag detection
molecule,measurement,setting,value
B1,association rate,HER2,2.8e+06 M⁻¹ s⁻¹
same,dissociation rate,HER2,0.00417 s⁻¹
same,stability after multiple freeze-thaw cycles,[1],stable
same,"t1/2 (alpha), total antibody measured by anti-HER2 binding",[2]; [5],0.4 h
same,"t1/2 (beta), total antibody measured by anti-HER2 binding",[2]; [5],5.25 h
same,blood clearance (in words),[2]; measured directly,rapid blood clearance
same,t1/2 (alpha),[3],0.4 h
same,t1/2 (beta),[3],4.3 h
same,"Bioavailability (blood exposure, AUC, 24 hrs)","[4]; mice, 1 × 5 mg/kg, mean AUC in anti-payload and anti-protein detection, Table 59",2.91 μghr/ml
same,Elimination half-life (hrs) Total Antibody,"[4]; mice, 1 × 5 mg/kg, Table 55",2.78 h
same,Elimination half-life (hrs) Total Antibody,"[4]; mice, 1 × 5 mg/kg, Table 59",2.78 h
same,plasma clearance (in words),"[4]; single i.v. dose, female BALB/c mice (5 mg/kg MMAF-C5, P5C5; 2 mg/kg AF-C5, DM1)",clears rapidly
